# Results reported in patent US20240100176A1 (Eli Lilly, published 2024).
# T1: IL-4Rα (target of the affinity engineering of Ab10; form not stated) (UniProt P24394 26-232, limits assumed)
# T1 sequence (looked up): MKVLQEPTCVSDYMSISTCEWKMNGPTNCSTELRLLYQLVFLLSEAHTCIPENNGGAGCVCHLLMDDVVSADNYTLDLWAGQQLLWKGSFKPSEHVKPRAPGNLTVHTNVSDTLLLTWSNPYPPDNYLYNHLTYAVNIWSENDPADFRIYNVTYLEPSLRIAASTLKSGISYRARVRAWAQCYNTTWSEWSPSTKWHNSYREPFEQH
# T2: human IL-4Rα on cells (human PBMC B cells and CD4+ T cells, Daudi cells, HEK-Blue IL-4/IL-13 cells, myeloid … (human, UniProt P24394 26-825))
# T2 sequence: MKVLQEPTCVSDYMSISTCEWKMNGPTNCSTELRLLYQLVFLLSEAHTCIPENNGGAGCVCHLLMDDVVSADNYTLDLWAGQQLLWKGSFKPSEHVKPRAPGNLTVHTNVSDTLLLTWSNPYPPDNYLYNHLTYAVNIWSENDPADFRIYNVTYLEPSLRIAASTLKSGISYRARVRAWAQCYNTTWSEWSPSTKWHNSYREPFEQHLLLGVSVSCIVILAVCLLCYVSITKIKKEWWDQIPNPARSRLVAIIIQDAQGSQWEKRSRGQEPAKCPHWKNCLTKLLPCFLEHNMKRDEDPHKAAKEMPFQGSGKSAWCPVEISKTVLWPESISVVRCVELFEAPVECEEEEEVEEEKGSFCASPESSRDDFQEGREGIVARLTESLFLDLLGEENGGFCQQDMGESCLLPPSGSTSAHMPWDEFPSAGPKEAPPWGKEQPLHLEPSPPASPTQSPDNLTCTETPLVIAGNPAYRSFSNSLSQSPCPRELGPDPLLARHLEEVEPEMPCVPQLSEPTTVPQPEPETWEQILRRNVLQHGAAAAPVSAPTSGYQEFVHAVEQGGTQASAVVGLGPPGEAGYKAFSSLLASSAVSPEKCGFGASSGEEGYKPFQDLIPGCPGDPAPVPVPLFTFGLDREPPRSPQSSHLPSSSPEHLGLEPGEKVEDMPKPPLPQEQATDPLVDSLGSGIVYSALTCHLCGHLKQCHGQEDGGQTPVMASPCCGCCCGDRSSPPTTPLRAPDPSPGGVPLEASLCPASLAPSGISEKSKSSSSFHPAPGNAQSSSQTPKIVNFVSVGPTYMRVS
# T3: human FcγRIIA_131H (CD32a) extracellular domain (human, UniProt P12318 34-217)
# T3 construct: extracellular domain
# T3 sequence (looked up): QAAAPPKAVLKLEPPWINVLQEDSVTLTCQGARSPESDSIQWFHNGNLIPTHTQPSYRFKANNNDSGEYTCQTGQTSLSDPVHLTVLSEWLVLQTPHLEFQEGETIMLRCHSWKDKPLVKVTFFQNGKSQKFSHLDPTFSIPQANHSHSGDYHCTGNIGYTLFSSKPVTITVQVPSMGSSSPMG
# T4: human FcγRIIb (CD32b) extracellular domain (human, UniProt P31994 43-217)
# T4 construct: extracellular domain
# T4 sequence (looked up): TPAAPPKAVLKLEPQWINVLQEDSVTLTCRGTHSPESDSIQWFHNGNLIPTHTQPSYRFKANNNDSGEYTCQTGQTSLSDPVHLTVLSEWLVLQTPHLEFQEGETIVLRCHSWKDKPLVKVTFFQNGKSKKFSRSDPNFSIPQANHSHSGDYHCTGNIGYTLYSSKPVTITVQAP
# How the values were obtained:
# [1] = target: T1, IL-4Rα (target of the affinity …); experiment: affinity during CDR mutagenesis of Ab10 (engineered as a Fab); method and antigen form not stated; order of magnitude only
# [2] = target: T2, human IL-4Rα on cells (human PBMC B …); experiment: cell-based or functional assay
# [3] = target: T2, human IL-4Rα on cells (human PBMC B …); experiment: cell-based or functional assay; remark: listed apart in the source
# [4] = target: T2, human IL-4Rα on cells (human PBMC B …); experiment: flow cytometry on human PBMCs, B cells, Alexa Fluor 647 labelled antibody
# Method: (§1) Example 3b. Binding to B cells and T cells: Binding of the exemplified anti-human IL-4Rα antibodies to B cells and T cells was tested in a Fluorescence Activated Cell Sorting (FACS) assay. […] Freshly isolated cells PBMCs were resuspended at 2×10⁶ cells/mL and allowed to rest for 15 minutes at room temperature, then plated at 100 μL/well into a round bottom 96-well plate (COSTAR®) and washed with FACS buffer (PBS containing 2% fetal bovine serum from Corning®). Exemplified anti-human IL-4Rα antibodies and the respective control IgG antibodies conjugated to Alexa Fluor® 647 according to manufacturer's protocol (Thermo Fisher Scientific) were added to the wells at 66.67 nM and diluted 4-fold in duplicate. Equivalent volume of 2× antibody cocktail containing: Human TruStain FcX™. FITC anti-human CD3 Antibody, Alexa Fluor® 700 anti-human CD4 Antibody (all from Biolegend®) and CD20 Monoclonal Antibody (2H7), PerCP-Cyanine5.5 (Thermo Fisher Scientific) was then added to the wells. Cells were incubated at 4° C. for 30 minutes, washed twice with FACS buffer and resuspended in a final volume of 100 μL FACS buffer. Viability dye, Sytox™ blue (Thermo Fisher Scientific), was added and the samples were analyzed via a flow cytometer (LSRFortessa™ X-20; BD BIOSCIENCES). Data analysis was performed using FlowJo software and statistical analysis was performed using GraphPad Prism 9. […]
# [5] = target: T5, human FcγRI (CD64) extracellular domain (human, UniProt P12314 16-292); experiment: SPR (Biacore), antibody captured on protein A, FcγR ECD as analyte, 25 °C
# T5 construct: extracellular domain
# T5 sequence (P12314 16-292): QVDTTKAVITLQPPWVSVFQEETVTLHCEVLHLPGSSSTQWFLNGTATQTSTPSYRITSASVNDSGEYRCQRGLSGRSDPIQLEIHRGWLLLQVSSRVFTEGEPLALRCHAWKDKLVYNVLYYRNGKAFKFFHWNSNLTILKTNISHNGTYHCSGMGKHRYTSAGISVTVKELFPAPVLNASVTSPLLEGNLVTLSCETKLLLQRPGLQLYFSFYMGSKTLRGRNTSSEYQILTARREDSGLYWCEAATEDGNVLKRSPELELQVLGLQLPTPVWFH
# Method: Unreacted sites were blocked with a 7 minute injection of ethanolamine at 10 μL/minute. Injections of 2×10 μL of glycine, pH 1.5, was used to remove any noncovalently associated protein. Running buffer was 1×HBS-EP+(TEKNOVA, P/N H8022). The FcγR extracellular domains (ECDs)-FcγRI (CD64), FcγRIIA_131R, and FcγRIIA_131H (CD32a), FcγRIIIA_158V, FcγRIIIA_158F (CD16a), and FcγRIIb (CD32b) were produced from stable CHO cell expression and purified using IgG Sepharose and size exclusion chromatography. For FcγRI binding, antibodies were diluted to […] in running buffer, and approximately 150 RU of each antibody was captured in FCs 2 through 4 (RU captured). FC1 was the reference FC, therefore no antibody was captured in FC1. […] Duplicate injections of each concentration were injected over all FCs at 40 μL/minute for 120 seconds followed by a 1200 second dissociation phase. Regeneration was performed by injecting 15 μL of 10 mM glycine, pH 1.5, at 30 μL/minute over all FCs. […] The affinity (KD) was calculated using either steady state equilibrium analysis with the Scrubber 2 Biacore Evaluation Software or a “1:1 (Langmuir) binding” model in BIA Evaluation. […] The affinity (KD) was calculated using the steady state equilibrium analysis with the Scrubber 2 Biacore Evaluation Software. […]
# [6] = target: T3, human FcγRIIA_131H (CD32a) …; experiment: SPR (Biacore), antibody captured on protein A, FcγR ECD as analyte, steady state, 25 °C
# Method: (§2) Unreacted sites were blocked with a 7 minute injection of ethanolamine at 10 μL/minute. Injections of 2×10 μL of glycine, pH 1.5, was used to remove any noncovalently associated protein. Running buffer was 1×HBS-EP+(TEKNOVA, P/N H8022). The FcγR extracellular domains (ECDs)-FcγRI (CD64), FcγRIIA_131R, and FcγRIIA_131H (CD32a), FcγRIIIA_158V, FcγRIIIA_158F (CD16a), and FcγRIIb (CD32b) were produced from stable CHO cell expression and purified using IgG Sepharose and size exclusion chromatography. For FcγRI binding, antibodies were diluted to […] in running buffer, and approximately 150 RU of each antibody was captured in FCs 2 through 4 (RU captured). FC1 was the reference FC, therefore no antibody was captured in FC1. […] Duplicate injections of each concentration were injected over all FCs at 40 μL/minute for 120 seconds followed by a 1200 second dissociation phase. Regeneration was performed by injecting 15 μL of 10 mM glycine, pH 1.5, at 30 μL/minute over all FCs. Reference-subtracted data was collected as FC2 FC1, FC3-FC1, and FC4-FC1 and the measurements were obtained at 25° C. The affinity (KD) was calculated using either steady state equilibrium analysis with the Scrubber 2 Biacore Evaluation Software or a “1:1 (Langmuir) binding” model in BIA Evaluation. For FcγRIIa, FcγRIIb, and FcγRIIIa binding, antibodies were diluted to 5 μg/mL in running buffer, and approximately 500 RU of each antibody was captured in FCs 2 through 4). FC1 was the reference FC. […] Duplicate injections of each concentration were injected over all FCs at 40 μL/minute for 60 seconds followed by a 120 second dissociation phase. Regeneration was performed by injecting 15 μL of 10 mM glycine, pH 1.5, at 30 μL/minute over all FCs. Reference-subtracted data was collected as FC2-FC1, FC3-FC1, and FC4-FC1, and the measurements were obtained at 25° C. The affinity (KD) was calculated using the steady state equilibrium analysis with the Scrubber 2 Biacore Evaluation Software. Each receptor was assayed at least two times.
# [7] = target: T4, human FcγRIIb (CD32b) extracellular …; experiment: as above
# Method: as §2
# [8] = target: T2, human IL-4Rα on cells (human PBMC B …); experiment: flow cytometry on human PBMCs, CD20 B cells, Alexa Fluor 647 labelled antibody, percent IL-4Rα positive cells
# Method: as §1
# [9] = target: T2, human IL-4Rα on cells (human PBMC B …); experiment: flow cytometry on human PBMCs, CD4-positive T cells, Alexa Fluor 647 labelled antibody, percent IL-4Rα positive cells
# Method: as §1
binder,measurement,setting,value
"Ab10 variant with the LCDR3 substitutions H91W, N92S (antibody, V domains shown, also called the resulting antibody) VH: QVQLVESGGGLVQPGGSLRLSCAASGFTFSISSMNWVRQAPGKGLEWVSYISRATGAIYYADSVKGRFTISRNNAKNSLYLQMNSLRDEDTAVYYCAREPVFDYWGQGTLVTVSS VL: DIQMTQSPSAMSASVGDRVTITCRASQGISNYLAWFQQKPGKVPTRLIYAASSLQSGVPSRFSGSGSGTEFTLTISSLQPEDFATYYCLQWSSYPRTFGQGTKVEIK",Kd,[1],~0.01 nM
"anti-human IL-4Rα antibody Ab7 (antibody, human IgG1, kappa, Human IgG1 backbone) heavy: not shown light: DIQMTQSPSAMSASVGDRVTITCRASQDISNYLAWFQQKPGKVPTRLIYAASSLQSGVPSRFSGSGSGTEFTLTISSLQPEDFATYYCLQWSSYPRTFGQGTKVEIKRTVAAPSVFIFPPSDEQLKSGTASVVCLLNNFYPREAKVQWKVDNALQSGNSQESVTEQDSKDSTYSLSSTLTLSKADYEKHKVYACEVTHQGLSSPVTKSFNRGEC",IL-4 IC50 (nM): inhibition of IL-4 induced SEAP activity in HEK-Blue IL-4R and IL-13R expressing cells,[2],0.07 nM
same,IL-13 IC50 (nM): inhibition of IL-13 induced SEAP activity in HEK-Blue IL-4R and IL-13R expressing cells,[2],0.51 nM
same,"Inhibition of IL-4 induced B cell proliferation, IC50",[3],0.95 nM
same,EC50,[4],0.27 nM
same,Kd,[5],0.0428 nM
same,Kd,[6],1240 nM
same,Kd,[7],3020 nM
same,EC50,[8],0.14 nM
same,EC50,[9],28.7 nM
